Data taken from article PMC4476739.

How the values were obtained:
[1] = molecular target: DS-Cav1 1-C, foldon removed (respiratory syncytial virus) (UniProt P03420); experiment: BLI; fortéBio Octet Red384; RSV F variant captured on motavizumab IgG loaded on anti-human Fc probes; Fab in solution 0.007 to 0.5 μM; 30°C; PBS + 1% BSA; 1:1 fit
[2] = molecular target: RSV F DS-Cav1 with a thrombin cleavage site between RSV F and the foldon, before cleavage (respiratory syncytial virus | bacteriophage T4) (UniProt P03420); experiment: SEC; S200 size-exclusion chromatography of purified RSV F variants, before or after removal of the foldon with thrombin; PBS
[3] = molecular target: RSV F DS-Cav1 with C-terminal T4 fibritin foldon (respiratory syncytial virus | bacteriophage T4) (UniProt P03420); experiment: as above
[4] = molecular target: DS-Cav1, 505-… (design without foldon) (respiratory syncytial virus) (UniProt P03420); experiment: ELISA; D25 ELISA on 293T transient expression culture supernatants, 96-well microtiter plate format

**Q.** With D25 antigen binding fragment (Fab) as the substance, how does the Kd [1] read?
**A.** Its Kd is 0.32 nM.

**Q.** With “RSV F DS-Cav1 with a thrombin cleavage site between RSV F and the foldon, before cleavage (from UniProt P03420 26-109; P03420 137-511) (domain or fragment)” as the substance, how does the stoichiometry N [2] read?
**A.** The stoichiometry N was 3.

**Q.** Which stoichiometry N [3] does the source give for “RSV F DS-Cav1 with C-terminal T4 fibritin foldon (from UniProt P03420 26-109; P03420 137-511) (domain or fragment)” here?
**A.** Its stoichiometry N is 3.

**Q.** With D25 antibody as used in the ELISA as the substance, how does the D25 ELISA binding titer (OD) [4] read?
**A.** The D25 ELISA binding titer (OD) was over 2 OD.
